In patent US6084068 one finds runoff transcription from the AdML promoter by RNA Polymerase II data, which are given here for 2 substances.

Where two headings read alike, the source gives them in different places.

The target in test [1] is RNA Polymerase II (rat).
In test [2] the target is RNA Polymerase II (rat). This is another data set of the same source.

In turn, Elongin A deletion mutant 1-680 registered a runoff transcription from the AdML promoter by RNA Polymerase II in test [1] of 50%. In test [2], Elongin A deletion mutant 1-730 registered a runoff transcription from the AdML promoter by RNA Polymerase II of more than 50%.
